Test results from patent US7939292B2, “Modified heparinase III and methods of sequencing therewith” (Massachusetts Institute of Technology, priority 2000, dated 2011).
“Also recorded” adds a separate entry of the source.

B1: H539A: recombinant heparinase III with histidine 539 mutated to alanine (protein)
chain: MTTKIFKRIIVFAVIALSSGNILAQSSSITRKDFDHINLEYSGLEKVNKAVAAGNYDDAAKALLAYYREKSKAREPDFSNAEKPADIRQPIDKVTREMADKALVHQFQPHKGYGYFDYGKDINWQMWPVKDNEVRWQLHRVKWWQAMALVYHATGDEKYAREWVYQYSDWARKNPLGLSQDNDKFVWRPLEVSDRVQSLPPTFSLFVNSPAFTPAFLMEFLNSYHQQADYLSTHYAEQGNHRLFEAQRNLFAGVSFPEFKDSPRWRQTGISVLNTEIKKQVYADGMQFELSPIYHVAAIDIFLKAYGSAKRVNLEKEFPQSYVQTVENMIMALISISLPDYNTPMFGDSWITDKNFRMAQFASWARVFPANQAIKYFATDGKQGKAPNFLSKALSNAGFYTFRSGWDKNATVMVLKASPPGEFHAQPDNGTFELFIKGRNFTPDAGVFVYSGDEAIMKLRNWYRQTRIHSTLTLDNQNMVITKARQNKWETGNNLDVLTYTNPSYPNLDHQRSVLFINKKYFLVIDRAIGEATGNLGVAWQLKEDSNPVFDKTKNRVYTTYRDGNNLMIQSLNADRTSLNEEEGKVSYVYNKELKRPAFVFEKPKKNAGTQNFVSIVYPYDGQKAPEISIRENKGNDFEKGKLNLTLTINGKQQLVLVP
B2: H295A: recombinant heparinase III with histidine 295 mutated to alanine (protein)
chain: MTTKIFKRIIVFAVIALSSGNILAQSSSITRKDFDHINLEYSGLEKVNKAVAAGNYDDAAKALLAYYREKSKAREPDFSNAEKPADIRQPIDKVTREMADKALVHQFQPHKGYGYFDYGKDINWQMWPVKDNEVRWQLHRVKWWQAMALVYHATGDEKYAREWVYQYSDWARKNPLGLSQDNDKFVWRPLEVSDRVQSLPPTFSLFVNSPAFTPAFLMEFLNSYHQQADYLSTHYAEQGNHRLFEAQRNLFAGVSFPEFKDSPRWRQTGISVLNTEIKKQVYADGMQFELSPIYAVAAIDIFLKAYGSAKRVNLEKEFPQSYVQTVENMIMALISISLPDYNTPMFGDSWITDKNFRMAQFASWARVFPANQAIKYFATDGKQGKAPNFLSKALSNAGFYTFRSGWDKNATVMVLKASPPGEFHAQPDNGTFELFIKGRNFTPDAGVFVYSGDEAIMKLRNWYRQTRIHSTLTLDNQNMVITKARQNKWETGNNLDVLTYTNPSYPNLDHQRSVLFINKKYFLVIDRAIGEATGNLGVHWQLKEDSNPVFDKTKNRVYTTYRDGNNLMIQSLNADRTSLNEEEGKVSYVYNKELKRPAFVFEKPKKNAGTQNFVSIVYPYDGQKAPEISIRENKGNDFEKGKLNLTLTINGKQQLVLVP
B3: H510A: recombinant heparinase III with histidine 510 mutated to alanine (protein)
chain: MTTKIFKRIIVFAVIALSSGNILAQSSSITRKDFDHINLEYSGLEKVNKAVAAGNYDDAAKALLAYYREKSKAREPDFSNAEKPADIRQPIDKVTREMADKALVHQFQPHKGYGYFDYGKDINWQMWPVKDNEVRWQLHRVKWWQAMALVYHATGDEKYAREWVYQYSDWARKNPLGLSQDNDKFVWRPLEVSDRVQSLPPTFSLFVNSPAFTPAFLMEFLNSYHQQADYLSTHYAEQGNHRLFEAQRNLFAGVSFPEFKDSPRWRQTGISVLNTEIKKQVYADGMQFELSPIYHVAAIDIFLKAYGSAKRVNLEKEFPQSYVQTVENMIMALISISLPDYNTPMFGDSWITDKNFRMAQFASWARVFPANQAIKYFATDGKQGKAPNFLSKALSNAGFYTFRSGWDKNATVMVLKASPPGEFHAQPDNGTFELFIKGRNFTPDAGVFVYSGDEAIMKLRNWYRQTRIHSTLTLDNQNMVITKARQNKWETGNNLDVLTYTNPSYPNLDAQRSVLFINKKYFLVIDRAIGEATGNLGVHWQLKEDSNPVFDKTKNRVYTTYRDGNNLMIQSLNADRTSLNEEEGKVSYVYNKELKRPAFVFEKPKKNAGTQNFVSIVYPYDGQKAPEISIRENKGNDFEKGKLNLTLTINGKQQLVLVP

Assay: Heparinase III kinetic assay of r-heparinase III and histidine mutants
Assay type: biochemical
Conditions: for enzymatic activity towards heparan sulfate: kinetic data and exhaustive digest profile
Protocol: The activity of heparinase III was measured using a UV 232 nm assay similar to those reported for heparinase I and heparinase II (Godavarti, R., Cooney, C. L., Langer, R., and Sasisekharan, R. (1996) Biochemistry 35, 6846-52; Shriver, Z., Hu, Y., and Sasisekharan, R. (1998) J. Biol. Chem. 273, 10160-67; and Lohse, D. and Linhardt, R. J. (1992) J. Biol. Chem. 267, 781-87). Briefly, the increase in absorbance at 232 nm as a function of time was monitored under saturating substrate conditions. All assays were performed with heparan sulfate at a concentration of 2 mg/ml in 50 mM sodium phosphate, pH 7.6. The temperature for enzymatic activity measurements was kept constant at 35° C.
In parallel to the mapping studies and to confirm the results of the chemical modification experiments, each of the thirteen histidine residues present in heparinase III was mutated to alanine. The recombinant heparinase III mutant proteins were expressed, purified, and assessed for enzymatic activity towards heparan sulfate (Table 2).

| Molecule | changes in recombinant protein yield, enzyme activity, or kinetic parameters compared with r-heparinase III | kcat (heparan sulfate) | Km (heparan sulfate, calculated assuming a molecular weight of 15 kDa) | enzymatic activity towards heparan sulfate |
| --- | --- | --- | --- | --- |
| B1 | no significant changes | 132 s⁻¹ | 92 µM |  |
| B2 |  |  |  | completely inactive; also recorded: no enzymatic activity |
| B3 | no significant changes |  |  | completely inactive; also recorded: no enzymatic activity |
